Test results from publication doi:10.1101/2023.04.24.538129 (bioRxiv, 2023).
Residue numbers refer to the chain shown, from its start. Names may count otherwise.

B1: human dysferlin C2A domain with the pathogenic mutation W52R (C2A^W52R) (domain or fragment)
chain: MLRVFILYAENVHTPDTDISDAYCSAVFAGVKKRTKVIKNSVNPVWNEGFERDLKGIPLDQGSELHVVVKDHETMGRNRFLGEAKVPLREVLATPSLSASFNAPLLDTKKQPTGASLVLQVSYT
B2: human dysferlin C2A domain with the pathogenic mutation V67D (C2A^V67D) (domain or fragment)
chain: B1 chain with R52W, V67D

Target: the molecule itself
Test: Thioflavin-T fluorescence

Protein	binding result
B1	binds
B2	binds
